# Data as given in PMC8397727, “The structure of the bacterial DNA segregation ATPase filament reveals the conformational plasticity of ParA upon DNA binding” (Nature Communications, 2021).
# Molecular target: Vibrio cholerae chromosome 2 ParA (ParA2vc) (Vibrio cholerae)
# Test: negative-stain EM; ParA2vc 1 mg/ml with or without 3.5 mM nucleotide and MgCl2, 30 °C 15 min, diluted 1/100 in 100 mM NaCl, 50 mM Tris pH 7.5; no DNA; 2D classification of particles; monomers to dimer
substance,measurement,value
Vibrio cholerae chromosome 2 ParA (ParA2vc),stoichiometry N,2
